Patent US11826404B2, “Plasminogen treatment of conditions associated with PAI-1 overexpression” (PROMETIC BIOTHERAPEUTICS, INC., priority 2017, dated 2023)

B1: plasminogen: Glu-plasminogen purified from pooled human plasma, purity above 95%; used in Example 2 (protein, UniProt P00747 20-810, looked up)
Plasminogen: EPLDDYVNTQGASLFSVTKKQLGAGSIEECAAKCEEDEEFTCRAFQYHSKEQQCVIMAENRKSSIIIRMRDVVLFEKKVYLSECKTGNGKNYRGTMSKTKNGITCQKWSSTSPHRPRFSPATHPSEGLEENYCRNPDNDPQGPWCYTTDPEKRYDYCDILECEEECMHCSGENYDGKISKTMSGLECQAWDSQSPHAHGYIPSKFPNKNLKKNYCRNPDRELRPWCFTTDPNKRWELCDIPRCTTPPPSSGPTYQCLKGTGENYRGNVAVTVSGHTCQHWSAQTPHTHNRTPENFPCKNLDENYCRNPDGKRAPWCHTTNSQVRWEYCKIPSCDSSPVSTEQLAPTAPPELTPVVQDCYHGDGQSYRGTSSTTTTGKKCQSWSSMTPHRHQKTPENYPNAGLTMNYCRNPDADKGPWCFTTDPSVRWEYCNLKKCSGTEASVVAPPPVVLLPDVETPSEEDCMFGNGKGYRGKRATTVTGTPCQDWAAQEPHRHSIFTPETNPRAGLEKNYCRNPDGDVGGPWCYTTNPRKLYDYCDVPQCAAPSFDCGKPQVEPKKCPGRVVGGCVAHPHSWPWQVSLRTRFGMHFCGGTLISPEWVLTAAHCLEKSPRPSSYKVILGAHQEVNLEPHVQEIEVSRLFLEPTRKDIALLKLSSPAVITDKVIPACLPSPNYVVADRTECFITGWGETQGTFGAGLLKEAQLPVIENKVCNRYEFLNGRVQSTELCAGHLAGGTDSCQGDSGGPLVCFEKDKYILQGVTSWGLGCARPNKPGVYVRVSRFVTWIEGVMRNN

Key:
IL-6 mRNA [1] = experiment: IL-6 mRNA expression by real-time PCR, bleomycin model, plasminogen combined with pirfenidone (Example 3); type: in vivo, mouse
Description: (§1) Male C57BL6 mice are administered intratracheal instillation of bleomycin sulphate (0.007 mg/mouse) at day 0. Human plasminogen was administered subcutaneously at day 10 and day 14, at a dose of either 6 mg/kg, 20 mg/kg, or 60 mg/kg. Animals were sacrificed at day 21. Collagen was quantified by histologic analysis using the staining Red sirus staining (Fluorescence) and analysed at a magnification of 400×. Collagen quantification was performed by segmentation with Image Pro Premier software, and using a sample of 20 fields located in the inflammatory lesions of the lungs. The quantity of collagen has been reported for the total surface of the regions containing inflammatory lesions. This method of quantification allows exclusion of the endogenous content of collagen that is normally contained in the tissue. […] CTGF, IL-6 and PAI-1 mRNA expressions were quantified by real-time PCR using mouse Taqman® Gene-Expression assay normalized to HPRT1 endogenous control (Student's t-test).
(§2) Pulmonary fibrosis in mice is induced by intratracheal instillation of the anticancer drug bleomycin into the mouse. […] Collagen was quantified by histologic analysis using the staining Red sirus staining (Fluorescence) and analysed as described in Example 2. IL-6 mRNA expression was quantified by real-time PCR using mouse Taqman® Gene-Expression assay normalized to HPRT1 endogenous control (Student's t-test).

[2] = test system: collagen in the inflammatory lesions of the lungs; experiment: Collagen quantification in inflammatory lesions of the lungs, bleomycin model, plasminogen combined with pirfenidone (Example 3); type: in vivo, mouse; conditions: bleomycin-induced mice, day 28, FIG. 8
Description: as §1, §2

IL-6 mRNA [3] = experiment: IL-6 mRNA expression by real-time PCR, bleomycin-induced pulmonary fibrosis mouse model (Example 2); type: in vivo; conditions: human plasminogen 6, 20 or 60 mg/kg subcutaneously at day 10 and day 14; bleomycin-induced mice; day 21; not dose-dependent; FIG. 6
From the text: (§3) Pulmonary fibrosis in mice is induced by intratracheal instillation of bleomycin into the mouse. Bleomycin is well-known anticancer drug. First, the bleomycin insult results in an acute inflammation as soon as day 1. Later at about day 10 to day 14, fibrotic events arise and create a chronic fibrotic condition. The bleomycin-induced mice is recognized as an animal model for pulmonary fibrosis. The evaluation of the activity of plasminogen is undertaken by treatment of the mice with plasminogen at appropriate time points. In the present study, plasminogen was administered at day 10 and day 14.
(§4) Male C57BL6 mice are administered intratracheal instillation of bleomycin sulphate (0.007 mg/mouse) at day 0. Human plasminogen was administered subcutaneously at day 10 and day 14, at a dose of either 6 mg/kg, 20 mg/kg, or 60 mg/kg. […] Collagen was quantified by histologic analysis using the staining Red sirus staining (Fluorescence) and analysed at a magnification of 400×. Collagen quantification was performed by segmentation with Image Pro Premier software, and using a sample of 20 fields located in the inflammatory lesions of the lungs. The quantity of collagen has been reported for the total surface of the regions containing inflammatory lesions. This method of quantification allows exclusion of the endogenous content of collagen that is normally contained in the tissue. […]

PAI-1 mRNA = PAI-1 mRNA expression by real-time PCR, bleomycin-induced pulmonary fibrosis mouse model (Example 2); type: in vivo; conditions: human plasminogen at all doses (6, 20, 60 mg/kg) subcutaneously at day 10 and day 14; bleomycin-induced mice; day 21; FIG. 7
From the text: as §3, §4

CTGF mRNA = CTGF mRNA expression by real-time PCR, bleomycin-induced pulmonary fibrosis mouse model (Example 2); type: in vivo; conditions: human plasminogen 6, 20 or 60 mg/kg subcutaneously at day 10 and day 14; bleomycin-induced mice; day 21; not dose-dependent; FIG. 5
From the text: as §3, §4

[4] = test system: collagen in the inflammatory lesions of the lungs; experiment: Collagen quantification in inflammatory lesions of the lungs, bleomycin-induced pulmonary fibrosis mouse model (Example 2); type: in vivo; conditions: human plasminogen 60 mg/kg subcutaneously at day 10 and day 14; bleomycin-induced mice; measured at day 21; FIG. 4
From the text: as §3, §4

Molecule | IL-6 expression versus non-treated bleomycin-induced mice (IL-6 mRNA [1]; pirfenidone alone, 400 mg/kg oral once a day from day 7 to day 27, day 28, FIG. 9) | fibrosis (collagen expression in the inflammatory lesions of the lungs) ([2]; pirfenidone alone, 400 mg/kg oral once a day from day 7 to day 27) | IL-6 mRNA expression (IL-6 mRNA [3]) | PAI-1 mRNA expression (overexpression of PAI-1 in lungs) (PAI-1 mRNA) | mRNA expression of CTGF (CTGF mRNA) | IL-6 mRNA expression (IL-6 mRNA [1]; murine plasminogen alone, 6 mg/kg subcutaneously at days 7, 10, 13, 16, 19 and 23, bleomycin-induced mice, day 28, FIG. 9) | collagen expression in the inflammatory lesions [4] | fibrosis (collagen expression in the inflammatory lesions of the lungs) ([2]; murine plasminogen alone, 6 mg/kg subcutaneously at days 7, 10, 13, 16, 19 and 23)
Cc1ccc(=O)n(-c2ccccc2)c1 [pirfenidone, reference compound] | not significantly different | efficient to reduce fibrosis | – | – | – | – | – | –
B1 | – | – | significantly reduced | reduced | significantly reduced | inhibits IL-6 mRNA expression | significantly reduced | efficient to reduce fibrosis
